Reference: paper PMC3785480

Experiments:
[1] = target: recombinant BB0347 (Borrelia burgdorferi); assay: ELISA
[2] = target: recombinant BB0347 (Borrelia burgdorferi); assay: ELISA; Figure 5, rBB0347 with full-length Fn; which protein was coated is not told; KD = concentration of added protein at half-maximal binding, assuming saturation

Substance: human fibronectin (from UniProt P02751 32-2477) (natural protein)
- percent reduction of binding with 50 µM heparin [1]: 40%
- Kd [2]: 200 nM
